Source: patent publication US20210246166A1 (Bayer, published 2021)
Numbered stars: 1 amine (or outer) side, 2 acyl side, 3 side chain; on linkers, the order of the positions; unused ones are H or OH. Bridge positions count the residues as written; N and C are the ends. Square brackets hold non-standard residues; d marks the D form. Ends that are not written are not given here. * marks the point of attachment. X13 = (2S)‑2‑amino‑3‑(1-methylcyclopropyl)propanoic acid, CC1(C[C@H](N[*:1])C(=O)[*:2])CC1; Piperidin‑4‑ylacetic acid = O=C(CC1CCNCC1)*; Oic = O=C(O)[C@@H]1C[C@@H]2CCCC[C@@H]2N1; Gly(cPent) = N[C@H](C(=O)O)C1CCCC1; NMeI = CC[C@H](C)[C@H](NC)C(=O)O; tBuAla = CC(C)(C)C[C@H](N)C(=O)O; Chg = N[C@H](C(=O)O)C1CCCCC1; Pen = CC(C)(S)[C@H](N)C(=O)O; NMeC = CN[C@@H](CS)C(=O)O; NMeA = CN[C@@H](C)C(=O)O; Ahx = NCCCCCC(=O)O; Sar = CNCC(=O)O

T1: Recombinant human MASP1 enzyme (fragment corresponding to amino acids 297-699, C-terminal His Tag) (human, UniProt P48740 297-699)
T1 sequence: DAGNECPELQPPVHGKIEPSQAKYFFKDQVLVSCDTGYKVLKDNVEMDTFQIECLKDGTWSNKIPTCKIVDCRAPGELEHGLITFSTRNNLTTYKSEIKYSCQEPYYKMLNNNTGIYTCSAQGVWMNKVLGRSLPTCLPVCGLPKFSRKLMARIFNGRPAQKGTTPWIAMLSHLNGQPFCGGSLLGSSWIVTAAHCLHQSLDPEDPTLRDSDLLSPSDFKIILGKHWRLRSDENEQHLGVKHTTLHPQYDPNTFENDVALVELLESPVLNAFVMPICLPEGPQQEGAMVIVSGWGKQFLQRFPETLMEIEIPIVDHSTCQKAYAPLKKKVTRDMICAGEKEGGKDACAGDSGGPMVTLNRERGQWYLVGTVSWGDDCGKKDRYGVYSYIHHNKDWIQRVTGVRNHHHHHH


What was measured:
[1] = molecular target: T1, Recombinant human MASP1 enzyme …; assay: cell-based or functional assay
[2] = molecular target: Recombinant human MASP2 enzyme (fragment corresponding to amino acids 297-686, C-terminal His Tag) (human, UniProt O00187 297-686); assay: cell-based or functional assay
Chain of Recombinant human MASP2 enzyme (fragment corresponding to amino acids 297-686, C-terminal His Tag) (O00187 other isoform, or with tags, fused parts or gaps limits assumed): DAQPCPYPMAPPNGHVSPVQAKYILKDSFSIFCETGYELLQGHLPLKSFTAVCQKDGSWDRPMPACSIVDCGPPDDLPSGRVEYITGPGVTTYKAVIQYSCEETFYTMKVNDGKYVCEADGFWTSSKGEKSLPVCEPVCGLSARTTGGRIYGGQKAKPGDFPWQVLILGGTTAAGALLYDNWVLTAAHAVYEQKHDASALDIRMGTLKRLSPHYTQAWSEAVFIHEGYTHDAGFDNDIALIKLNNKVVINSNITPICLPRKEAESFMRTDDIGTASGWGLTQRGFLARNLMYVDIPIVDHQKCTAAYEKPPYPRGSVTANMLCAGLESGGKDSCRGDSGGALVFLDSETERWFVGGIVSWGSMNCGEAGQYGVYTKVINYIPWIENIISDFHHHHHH

| Binder | human MASP1 IC50 [1] | human MASP2 IC50 [2] |
| --- | --- | --- |
| AICSRSLPP[Chg]CIPD-NH2 (disulfide 3-11; N-terminus assumed; SMILES CC[C@H](C)[C@H](NC(=O)[C@H](C)N)C(=O)N[C@H]1CSSC[C@@H](C(=O)N[C@H](C(=O)N2CCC[C@H]2C(=O)N[C@@H](CC(=O)O)C(N)=O)[C@@H](C)CC)NC(=O)[C@H](C2CCCCC2)NC(=O)[C@@H]2CCCN2C(=O)[C@@H]2CCCN2C(=O)[C@H](CC(C)C)NC(=O)[C@H](CO)NC(=O)[C@H](CCCNC(=N)N)NC(=O)[C@H](CO)NC1=O) [AIC+SRSLPP-(Chg)-C+IPD-NH2] | 0.0098 µM | 0.0735 µM |
| {Piperidin‑4‑ylacetic acid}-ICSRS[tBuAla]PPI[NMeC]I-NH2 (disulfide 2-10; SMILES CC[C@H](C)[C@H](NC(=O)[C@@H]1CSSC[C@H](NC(=O)[C@@H](NC(=O)CC2CCNCC2)[C@@H](C)CC)C(=O)N[C@@H](CO)C(=O)N[C@@H](CCCNC(=N)N)C(=O)N[C@@H](CO)C(=O)N[C@@H](CC(C)(C)C)C(=O)N2CCC[C@H]2C(=O)N2CCC[C@H]2C(=O)N[C@@H]([C@@H](C)CC)C(=O)N1C)C(N)=O) [(Piperidin-4-ylacetic acid)-IC+SRS-((tBu)A)-PPI-((N-Me)C)+I-NH2] | 0.01 µM | 0.032 µM |
| AICSRS[tBuAla]P[Oic]I[NMeC]IPD-NH2 (disulfide 3-11; N-terminus assumed; SMILES CC[C@H](C)[C@H](NC(=O)[C@H](C)N)C(=O)N[C@H]1CSSC[C@@H](C(=O)N[C@H](C(=O)N2CCC[C@H]2C(=O)N[C@@H](CC(=O)O)C(N)=O)[C@@H](C)CC)N(C)C(=O)[C@H]([C@@H](C)CC)NC(=O)[C@@H]2C[C@@H]3CCCC[C@@H]3N2C(=O)[C@@H]2CCCN2C(=O)[C@H](CC(C)(C)C)NC(=O)[C@H](CO)NC(=O)[C@H](CCCNC(=N)N)NC(=O)[C@H](CO)NC1=O) [AIC+SRS-((tBu)A)-P-(Oic)-I-((N-Me)C)+IPD-NH2] | 0.012 µM | 0.37 µM |
| [Sar][Sar][Sar][Sar][Sar]ICSRS[tBuAla]PPI[Pen]IP-NH2 (disulfide 7-15; N-terminus assumed; SMILES CC[C@H](C)[C@H](NC(=O)CN(C)C(=O)CN(C)C(=O)CN(C)C(=O)CN(C)C(=O)CNC)C(=O)N[C@H]1CSSC(C)(C)[C@@H](C(=O)N[C@H](C(=O)N2CCC[C@H]2C(N)=O)[C@@H](C)CC)NC(=O)[C@H]([C@@H](C)CC)NC(=O)[C@@H]2CCCN2C(=O)[C@@H]2CCCN2C(=O)[C@H](CC(C)(C)C)NC(=O)[C@H](CO)NC(=O)[C@H](CCCNC(=N)N)NC(=O)[C@H](CO)NC1=O) [((N-Me)G)-((N-Me)G)-((N-Me)G)-((N-Me)G)-((N-Me)G)-IC+SRS-((tBu)A)-PPI-(Pen)+IP-NH2] | 0.011 µM | 0.038 µM |
| A[NMeI]CSRSLPPICIPD-NH2 (disulfide 3-11; N-terminus assumed; SMILES CC[C@H](C)[C@@H]1NC(=O)[C@@H]2CCCN2C(=O)[C@@H]2CCCN2C(=O)[C@H](CC(C)C)NC(=O)[C@H](CO)NC(=O)[C@H](CCCNC(=N)N)NC(=O)[C@H](CO)NC(=O)[C@@H](NC(=O)[C@H]([C@@H](C)CC)N(C)C(=O)[C@H](C)N)CSSC[C@@H](C(=O)N[C@H](C(=O)N2CCC[C@H]2C(=O)N[C@@H](CC(=O)O)C(N)=O)[C@@H](C)CC)NC1=O) [A-((N-Me)I)-C+SRSLPPIC+IPD-NH2] | 0.0101 µM | 2.7 µM |
| [Sar]ICSRSLP[Oic]I[Pen]IP-NH2 (disulfide 3-11; also: tartrate salt) [((N-Me)G)-IC+SRSLP-(Oic)-I-(Pen)+IP-NH2 (Tartrate)] | 0.0011 µM | 0.035 µM |
| [NMeA]ICSRS[tBuAla]PPICIPD-NH2 (disulfide 3-11; N-terminus assumed; SMILES CC[C@H](C)[C@H](NC(=O)[C@H](C)NC)C(=O)N[C@H]1CSSC[C@@H](C(=O)N[C@H](C(=O)N2CCC[C@H]2C(=O)N[C@@H](CC(=O)O)C(N)=O)[C@@H](C)CC)NC(=O)[C@H]([C@@H](C)CC)NC(=O)[C@@H]2CCCN2C(=O)[C@@H]2CCCN2C(=O)[C@H](CC(C)(C)C)NC(=O)[C@H](CO)NC(=O)[C@H](CCCNC(=N)N)NC(=O)[C@H](CO)NC1=O) [((N-Me)A)-IC+SRS-((tBu)A)-PPIC+IPD-NH2] | 0.0095 µM | 0.44 µM |
| [Ahx]ICSRS[tBuAla]PPI[Pen]IP-NH2 (disulfide 3-11; N-terminus assumed; SMILES CC[C@H](C)[C@H](NC(=O)CCCCCN)C(=O)N[C@H]1CSSC(C)(C)[C@@H](C(=O)N[C@H](C(=O)N2CCC[C@H]2C(N)=O)[C@@H](C)CC)NC(=O)[C@H]([C@@H](C)CC)NC(=O)[C@@H]2CCCN2C(=O)[C@@H]2CCCN2C(=O)[C@H](CC(C)(C)C)NC(=O)[C@H](CO)NC(=O)[C@H](CCCNC(=N)N)NC(=O)[C@H](CO)NC1=O) [(Ahx)-IC+SRS-((tBu)A)-PPI-(Pen)+IP-NH2] | 0.0099 µM | 0.016 µM |
| [Sar]ICSRS[X13]P[Oic]I[Pen]IP-NH2 (disulfide 3-11; N-terminus assumed; SMILES CC[C@H](C)[C@H](NC(=O)CNC)C(=O)N[C@H]1CSSC(C)(C)[C@@H](C(=O)N[C@H](C(=O)N2CCC[C@H]2C(N)=O)[C@@H](C)CC)NC(=O)[C@H]([C@@H](C)CC)NC(=O)[C@@H]2C[C@@H]3CCCC[C@@H]3N2C(=O)[C@@H]2CCCN2C(=O)[C@H](CC2(C)CC2)NC(=O)[C@H](CO)NC(=O)[C@H](CCCNC(=N)N)NC(=O)[C@H](CO)NC1=O) [((N-Me)G)-IC+SRS-((2S)-2-amino-3-(1-methylcyclopropyl)propanoic acid)-P-(Oic)-I-(Pen)+IP-NH2] | 0.011 µM | 0.057 µM |

More lines, now with the values ahead:

| human MASP1 IC50 [1] | human MASP2 IC50 [2] | Binder |
| --- | --- | --- |
| 0.01 µM | 0.4 µM | ICSRS[tBuAla]PPI[Pen]IP-OH (disulfide 2-10; N-terminus assumed; SMILES CC[C@H](C)[C@H](N)C(=O)N[C@H]1CSSC(C)(C)[C@@H](C(=O)N[C@H](C(=O)N2CCC[C@H]2C(=O)O)[C@@H](C)CC)NC(=O)[C@H]([C@@H](C)CC)NC(=O)[C@@H]2CCCN2C(=O)[C@@H]2CCCN2C(=O)[C@H](CC(C)(C)C)NC(=O)[C@H](CO)NC(=O)[C@H](CCCNC(=N)N)NC(=O)[C@H](CO)NC1=O) [IC+SRS-((tBu)A)-PPI-(Pen)+IP-OH] |
| 0.011 µM | 0.17 µM | AICSRSLPP[Gly(cPent)]CIPD-NH2 (disulfide 3-11; N-terminus assumed; SMILES CC[C@H](C)[C@H](NC(=O)[C@H](C)N)C(=O)N[C@H]1CSSC[C@@H](C(=O)N[C@H](C(=O)N2CCC[C@H]2C(=O)N[C@@H](CC(=O)O)C(N)=O)[C@@H](C)CC)NC(=O)[C@H](C2CCCC2)NC(=O)[C@@H]2CCCN2C(=O)[C@@H]2CCCN2C(=O)[C@H](CC(C)C)NC(=O)[C@H](CO)NC(=O)[C@H](CCCNC(=N)N)NC(=O)[C@H](CO)NC1=O) [AIC+SRSLPP-(Cpg)-C+IPD-NH2] |
| 0.01 µM | 0.62 µM | ICSRS[tBuAla]PPI[NMeC]IPD-NH2 (disulfide 2-10; N-terminus assumed; SMILES CC[C@H](C)[C@H](N)C(=O)N[C@H]1CSSC[C@@H](C(=O)N[C@H](C(=O)N2CCC[C@H]2C(=O)N[C@@H](CC(=O)O)C(N)=O)[C@@H](C)CC)N(C)C(=O)[C@H]([C@@H](C)CC)NC(=O)[C@@H]2CCCN2C(=O)[C@@H]2CCCN2C(=O)[C@H](CC(C)(C)C)NC(=O)[C@H](CO)NC(=O)[C@H](CCCNC(=N)N)NC(=O)[C@H](CO)NC1=O) [IC+SRS-((tBu)A)-PP-I-((N-Me)C)+IPD-NH2] |
| 0.01 µM | 0.11 µM | [dK]ICSRS[tBuAla]PPI[Pen]I-NH2 (disulfide 3-11; N-terminus assumed; SMILES CC[C@H](C)[C@H](NC(=O)[C@H]1NC(=O)[C@H]([C@@H](C)CC)NC(=O)[C@@H]2CCCN2C(=O)[C@@H]2CCCN2C(=O)[C@H](CC(C)(C)C)NC(=O)[C@H](CO)NC(=O)[C@H](CCCNC(=N)N)NC(=O)[C@H](CO)NC(=O)[C@@H](NC(=O)[C@@H](NC(=O)[C@H](N)CCCCN)[C@@H](C)CC)CSSC1(C)C)C(N)=O) [kIC+SRS-((tBu)A)-PPI-(Pen)+I-NH2] |
| 0.011 µM | 1.2 µM | ICSRSLP[Oic]I[Pen]IP-OH (disulfide 2-10; N-terminus assumed; SMILES CC[C@H](C)[C@H](N)C(=O)N[C@H]1CSSC(C)(C)[C@@H](C(=O)N[C@H](C(=O)N2CCC[C@H]2C(=O)O)[C@@H](C)CC)NC(=O)[C@H]([C@@H](C)CC)NC(=O)[C@@H]2C[C@@H]3CCCC[C@@H]3N2C(=O)[C@@H]2CCCN2C(=O)[C@H](CC(C)C)NC(=O)[C@H](CO)NC(=O)[C@H](CCCNC(=N)N)NC(=O)[C@H](CO)NC1=O) [IC+SRSLP-(Oic)-I-(Pen)+IP-OH] |
| 0.0094 µM | 0.48 µM | AICSRSNPPI[Pen]IPD-NH2 (disulfide 3-11; N-terminus assumed; SMILES CC[C@H](C)[C@H](NC(=O)[C@H](C)N)C(=O)N[C@H]1CSSC(C)(C)[C@@H](C(=O)N[C@H](C(=O)N2CCC[C@H]2C(=O)N[C@@H](CC(=O)O)C(N)=O)[C@@H](C)CC)NC(=O)[C@H]([C@@H](C)CC)NC(=O)[C@@H]2CCCN2C(=O)[C@@H]2CCCN2C(=O)[C@H](CC(N)=O)NC(=O)[C@H](CO)NC(=O)[C@H](CCCNC(=N)N)NC(=O)[C@H](CO)NC1=O) [AIC+SRSNPPI-(Pen)+IPD-NH2] |
